One test has as its target T1, 4H428-AA.
T1 chain: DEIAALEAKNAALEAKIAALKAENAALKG
Description: two-hybrid library CCmax.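 Also: natural log of median RNA to DNA barcode read ratio; higher means stronger binding.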 The settings on record: mean of both orientations.

In another test the target is T2, 4H971-AA.
T2 chain: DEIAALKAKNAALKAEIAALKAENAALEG
Description: two-hybrid library CCmax.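 Also: natural log of median RNA to DNA barcode read ratio; higher means stronger binding.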 The note with it: mean of both orientations.

For the next test, the target named is T3, 4H3628-AA.
T3 chain: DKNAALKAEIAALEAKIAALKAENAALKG
Description: two-hybrid library CCmax.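 Also: natural log of median RNA to DNA barcode read ratio; higher means stronger binding.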 The settings on record: mean of both orientations.

The target of the next test is T4, 4H391-AA.
T4 chain: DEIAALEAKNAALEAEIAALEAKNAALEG
Description: two-hybrid library CCmax.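 Also: natural log of median RNA to DNA barcode read ratio; higher means stronger binding.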 The note with it: mean of both orientations.

The target in the next test is T5, 4H3666-AA.
T5 chain: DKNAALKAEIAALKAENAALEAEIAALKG
Description: two-hybrid library CCmax.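 Also: natural log of median RNA to DNA barcode read ratio; higher means stronger binding.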 The settings on record: mean of both orientations.

In a further test the target is T6, 4H3709-AA.
T6 chain: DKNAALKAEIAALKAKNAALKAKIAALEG
Description: two-hybrid library CCmax.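 Also: natural log of median RNA to DNA barcode read ratio; higher means stronger binding.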 The settings on record: mean of both orientations.

A further test concerns the target T7, 4H656-AA.
T7 chain: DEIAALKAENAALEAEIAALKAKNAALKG
Description: two-hybrid library CCmax. The settings on record: mean of both orientations.

For another test, the target named is T8, 4H3591-AA.
T8 chain: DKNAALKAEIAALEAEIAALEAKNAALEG
Description: two-hybrid library CCmax. The settings on record: mean of both orientations.

For the next test, the target named is T9, 4H3939-AA.
T9 chain: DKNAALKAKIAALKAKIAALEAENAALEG
Description: two-hybrid library CCmax. The settings on record: mean of both orientations.

A further test deals with T10, 4H3121-AA.
T10 chain: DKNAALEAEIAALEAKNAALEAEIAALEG
Description: two-hybrid library CCmax.

In a further test the target is T11, 4H675-AA.
T11 chain: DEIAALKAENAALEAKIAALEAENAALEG
Description: two-hybrid library CCmax.

The target of the next test is T12, 4H3417-AA.
T12 chain: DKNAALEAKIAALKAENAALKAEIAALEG
Description: two-hybrid library CCmax. The settings on record: mean of both orientations.

A further test deals with T13, 4H497-AA.
T13 chain: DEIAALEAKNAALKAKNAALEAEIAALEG
Description: two-hybrid library CCmax. The settings on record: mean of both orientations.

The next test deals with T14, 4H3920-AA.
T14 chain: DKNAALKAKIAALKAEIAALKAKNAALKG
Description: two-hybrid library CCmax. The note with it: mean of both orientations.

Another test addresses T15, 4H3446-AA.
T15 chain: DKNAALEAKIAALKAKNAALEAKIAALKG
Description: two-hybrid library CCmax. The settings on record: mean of both orientations.

In a further test the target is T16, 4H478-AA.
T16 chain: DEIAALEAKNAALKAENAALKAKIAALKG
Description: two-hybrid library CCmax. The settings on record: mean of both orientations.

Another test concerns the target T17, 4H949-bN.
T17 chain: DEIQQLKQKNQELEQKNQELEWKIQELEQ
Description: two-hybrid library CCNG1.

For a further test, the target named is T18, 4H796-bN.
T18 chain: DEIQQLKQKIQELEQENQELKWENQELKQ
Description: two-hybrid library CCNG1.

A further test deals with T19, 4H932-bN.
T19 chain: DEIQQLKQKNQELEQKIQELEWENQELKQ
Description: two-hybrid library CCNG1.

For a further test, the target named is T20, 4H891-AA.
T20 chain: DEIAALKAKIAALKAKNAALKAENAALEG
Description: two-hybrid library CCmax. The note with it: mean of both orientations.

The target of a further test is T21, 4H797-AA.
T21 chain: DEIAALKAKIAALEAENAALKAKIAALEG
Description: two-hybrid library CCmax. The settings on record: mean of both orientations.

A further test deals with T22, 4H3130-AA.
T22 chain: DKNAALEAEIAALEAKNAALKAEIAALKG
Description: two-hybrid library CCmax. The settings on record: mean of both orientations.

The target of a further test is T23, 4H930-AA.
T23 chain: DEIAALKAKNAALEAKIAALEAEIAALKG
Description: two-hybrid library CCmax. The settings on record: mean of both orientations.

In a further test the target is T24, 4H3381-AA.
T24 chain: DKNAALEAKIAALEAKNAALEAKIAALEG
Description: two-hybrid library CCmax. The note with it: mean of both orientations.

The target of the next test is T25, 4H3590-AA.
T25 chain: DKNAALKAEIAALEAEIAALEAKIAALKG
Description: two-hybrid library CCmax. The settings on record: mean of both orientations.

For a further test, the target named is T26, 4H629-AA.
T26 chain: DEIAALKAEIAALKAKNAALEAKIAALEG
Description: two-hybrid library CCmax. The note with it: mean of both orientations.

The next test has as its target T27, 4H2725-AA.
T27 chain: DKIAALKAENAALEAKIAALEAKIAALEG
Description: two-hybrid library CCmax. The note with it: mean of both orientations.

A further test addresses T28, 4H2865-AA.
T28 chain: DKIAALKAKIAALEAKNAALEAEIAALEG
Description: two-hybrid library CCmax. The note with it: mean of both orientations.

A further test concerns the target T29, 4H3410-AA.
T29 chain: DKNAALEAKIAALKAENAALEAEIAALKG
Description: two-hybrid library CCmax. The note with it: mean of both orientations.

The target of a further test is T30, 4H570-AA.
T30 chain: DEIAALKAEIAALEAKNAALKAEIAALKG
Description: two-hybrid library CCmax. The settings on record: mean of both orientations.

The target in another test is T31, 4H909-AA.
T31 chain: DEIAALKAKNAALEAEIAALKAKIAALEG
Description: two-hybrid library CCmax. The note with it: mean of both orientations.

A further test deals with T32, 4H3016-AA.
T32 chain: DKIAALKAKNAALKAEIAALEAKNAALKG
Description: two-hybrid library CCmax. The note with it: mean of both orientations.

A further test concerns the target T33, 4H3395-AA.
T33 chain: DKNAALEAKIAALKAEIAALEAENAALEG
Description: two-hybrid library CCmax. The note with it: mean of both orientations.

Another test concerns the target T34, 4H850-AA.
T34 chain: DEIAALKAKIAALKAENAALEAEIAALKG
Description: two-hybrid library CCmax. The settings on record: mean of both orientations.

The next test addresses T35, 4H3120-AA.
T35 chain: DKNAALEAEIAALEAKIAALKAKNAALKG
Description: two-hybrid library CCmax. The note with it: mean of both orientations.

Another test deals with T36, 4H3165-AA.
T36 chain: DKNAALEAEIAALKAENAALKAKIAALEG
Description: two-hybrid library CCmax. The note with it: mean of both orientations.

The next test concerns the target T37, 4H745-AA.
T37 chain: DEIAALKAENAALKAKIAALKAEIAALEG
Description: two-hybrid library CCmax. The settings on record: mean of both orientations.

For the next test, the target named is T38, 4H3009-AA.
T38 chain: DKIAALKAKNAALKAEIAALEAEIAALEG
Description: two-hybrid library CCmax. The settings on record: mean of both orientations.

A further test concerns the target T39, 4H2649-AA.
T39 chain: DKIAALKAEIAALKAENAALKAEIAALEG
Description: two-hybrid library CCmax.

For a further test, the target named is T40, 4H710-AA.
T40 chain: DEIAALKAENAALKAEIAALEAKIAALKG
Description: two-hybrid library CCmax. The settings on record: mean of both orientations.

For the next test, the target named is T41, 4H485-AA.
T41 chain: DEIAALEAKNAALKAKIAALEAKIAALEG
Description: two-hybrid library CCmax. The settings on record: mean of both orientations.

For the next test, the target named is T42, 4H310-AA.
T42 chain: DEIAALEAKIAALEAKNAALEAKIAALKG
Description: two-hybrid library CCmax. The note with it: mean of both orientations.

Another test deals with T43, 4H3753-AA.
T43 chain: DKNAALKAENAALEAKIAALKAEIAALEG
Description: two-hybrid library CCmax. The settings on record: mean of both orientations.

The target of another test is T44, 4H2698-AA.
T44 chain: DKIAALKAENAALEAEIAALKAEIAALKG
Description: two-hybrid library CCmax. The note with it: mean of both orientations.

In the next test the target is T45, 4H3697-AA.
T45 chain: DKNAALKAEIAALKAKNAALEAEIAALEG
Description: two-hybrid library CCmax. The note with it: mean of both orientations.

Another test addresses T46, 4H3865-AA.
T46 chain: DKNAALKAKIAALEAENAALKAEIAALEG
Description: two-hybrid library CCmax. The note with it: mean of both orientations.

For another test, the target named is T47, 4H458-AA.
T47 chain: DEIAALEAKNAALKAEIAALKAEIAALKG
Description: two-hybrid library CCmax. The settings on record: mean of both orientations.

A further test addresses T48, 4H536-AA.
T48 chain: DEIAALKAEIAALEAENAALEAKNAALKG
Description: two-hybrid library CCmax. The note with it: mean of both orientations.

In another test the target is T49, 4H94-AA.
T49 chain: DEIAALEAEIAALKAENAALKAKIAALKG
Description: two-hybrid library CCmax. The settings on record: mean of both orientations.

Here are results for three molecules from publication PMC10397247.

Take DKNAALEAEIAALEAKNAALEAEIAALEG [4H3121-AA]: the interaction score was -0.865 in the test with 4H428-AA; -1.39 with 4H971-AA; -1.32 with 4H3628-AA; -1.89 with 4H391-AA; -0.746 with 4H3666-AA; -0.104 with 4H3709-AA. In addition, the interaction score with 4H656-AA is -1.6; with 4H3591-AA, -1.55; with 4H3939-AA it was -1.9; in the test with 4H3121-AA, -1.24; in the test with 4H675-AA it was -2.08; in the test with 4H3417-AA it was -1.39. Moreover, the interaction score is -1.74 with 4H497-AA, -1.06 with 4H3920-AA, 1.8 with 4H3446-AA and -0.966 with 4H478-AA.
For DEIQQLKQKIQELEQENQELKWENQELKQ [4H796-bN], the interaction score is -0.619 with 4H949-bN, 1.8 with 4H796-bN and 0.298 with 4H932-bN.
As for DKIAALKAEIAALKAENAALKAEIAALEG [4H2649-AA], the interaction score with 4H891-AA was -1.86; with 4H797-AA, 0.345; in the test with 4H3130-AA it was -0.528; in the test with 4H930-AA it was -0.569; in the test with 4H3381-AA it was -1.34; with 4H3590-AA, -0.789. Moreover, the interaction score with 4H629-AA is -0.681; with 4H2725-AA it was 0.985; with 4H2865-AA, -1.38; with 4H3410-AA it was -0.287; with 4H570-AA, 1.86; in the test with 4H909-AA, -1.6. The interaction score in the test with 4H3016-AA is -1.64; with 4H3395-AA, -1.27; in the test with 4H850-AA, 1.99; with 4H3120-AA, -1.41; in the test with 4H3165-AA, 1.07; with 4H745-AA, -0.16. In addition, the interaction score in the test with 4H3009-AA is -0.366; with 4H2649-AA it was 0.376; with 4H710-AA, -1.42; with 4H485-AA it was -1.19; with 4H310-AA, -0.563; with 4H3753-AA it was -1.64. The interaction score is -1.14 with 4H2698-AA; -1.81 with 4H3697-AA; -1.59 with 4H3865-AA; -1.33 with 4H458-AA; 0.807 with 4H536-AA; 2.21 in the test with 4H94-AA.
